{"source": "paper PMC6850273", "about": "“Cyanophage MazG is a pyrophosphohydrolase but unable to hydrolyse magic spot nucleotides” (Environmental Microbiology Reports, 2019)", "proteins": {"B1": {"name": "Synechococcus sp. WH7803 'large' MazG (Syn MazG) (Synechococcus sp. WH 7803) (protein)", "chain": "MAQHATVPGDQDPLRYLESVVARLRDPVNGCPWDLEQTHASLVPYVLEEAHEVADAIRHGDDRHLKEELGDLLLQVVLHARIGAENNRFDLDAIATTISDKLIRRHPHVFGEARAENTEAVRLSWEAIKAAERAEQSGGEQSSSPLSDQLAGKVRGQPALAAAMTISRKAAKAGFEWDAIDGVWGKVQEELDELKEAIASGDRRHAQDELGDVLFTLVNVARWCGLDPEEGLAATNQRFLDRFSRVESALNGDLQGRSIQELEALWQQAKAAIRAENTQSS", "notes": "recombinant, over-expressed in E. coli and purified (tag details only in supplement); two MazG domains"}, "B2": {"name": "cyanophage S-PM2 MazG (viral MazG) (Synechococcus phage S-PM2) (protein)", "chain": "MSKVNFERYQEFVSEVTSDASTNFVDFADRIGELDREGANIERLLTAGVGINAEGGEFLEIIKKMVFQGKPWNRDNREHLIIELGDIMWYVAQACIALGVSFDDVISGNVKKLEKRYPGGEFDVFYSENRSADDR", "notes": "recombinant, over-expressed in E. coli, purified by imidazole elution (tag details only in supplement); single MazG domain"}}, "assay_in_all_cases": "PiPER pyrophosphate assay kit, released phosphate", "conditions_in_all_cases": "1 μg purified protein; SE of three replicates", "key": {"[1]": {"substrate": "Nc1ccn([C@@H]2O[C@H](COP(=O)(O)OP(=O)(O)OP(=O)(O)O)[C@@H](O)[C@H]2O)c(=O)n1", "format": "biochemical, Synechococcus sp. WH 7803", "from_the_text": "(§1) PiPER pyrophosphate assay kit, released phosphate on Synechococcus sp. WH7803 'large' MazG (Syn MazG)"}, "[2]": {"substrate": "Nc1ccn([C@H]2C[C@H](O)[C@@H](COP(=O)(O)OP(=O)(O)OP(=O)(O)O)O2)c(=O)n1", "format": "biochemical, Synechococcus sp. WH 7803", "from_the_text": "as §1"}, "[3]": {"substrate": "Nc1nc2c(ncn2[C@@H]2O[C@H](COP(=O)(O)OP(=O)(O)OP(=O)(O)O)[C@@H](O)[C@H]2O)c(=O)[nH]1", "format": "biochemical, Synechococcus sp. WH 7803", "from_the_text": "as §1"}, "[4]": {"substrate": "Nc1nc2c(ncn2[C@H]2C[C@H](O)[C@@H](COP(=O)(O)OP(=O)(O)OP(=O)(O)O)O2)c(=O)[nH]1", "format": "biochemical, Synechococcus sp. WH 7803", "from_the_text": "as §1"}, "[5]": {"substrate": "Nc1ncnc2c1ncn2[C@@H]1O[C@H](COP(=O)(O)OP(=O)(O)OP(=O)(O)O)[C@@H](O)[C@H]1O", "format": "biochemical, Synechococcus sp. WH 7803", "from_the_text": "as §1"}, "[6]": {"substrate": "Nc1ncnc2c1ncn2[C@H]1C[C@H](O)[C@@H](COP(=O)(O)OP(=O)(O)OP(=O)(O)O)O1", "format": "biochemical, Synechococcus sp. WH 7803", "from_the_text": "as §1"}, "[7]": {"substrate": "O=c1ccn([C@@H]2O[C@H](COP(=O)(O)OP(=O)(O)OP(=O)(O)O)[C@@H](O)[C@H]2O)c(=O)[nH]1", "format": "biochemical, Synechococcus sp. WH 7803", "from_the_text": "as §1"}, "[8]": {"substrate": "Cc1cn([C@H]2C[C@H](O)[C@@H](COP(=O)(O)OP(=O)(O)OP(=O)(O)O)O2)c(=O)[nH]c1=O", "format": "biochemical, Synechococcus phage S-PM2", "from_the_text": "(§2) PiPER pyrophosphate assay kit, released phosphate on cyanophage S-PM2 MazG (viral MazG)"}, "[9]": {"substrate": "Nc1ccn([C@@H]2O[C@H](COP(=O)(O)OP(=O)(O)OP(=O)(O)O)[C@@H](O)[C@H]2O)c(=O)n1", "format": "biochemical, Synechococcus phage S-PM2", "from_the_text": "as §2"}, "[10]": {"substrate": "Nc1ccn([C@H]2C[C@H](O)[C@@H](COP(=O)(O)OP(=O)(O)OP(=O)(O)O)O2)c(=O)n1", "format": "biochemical, Synechococcus phage S-PM2", "from_the_text": "as §2"}, "[11]": {"substrate": "Nc1nc(O)nc2c1ncn2[C@H]1C[C@H](O)[C@@H](COP(=O)(O)OP(=O)(O)OP(=O)(O)O)O1", "format": "biochemical, Synechococcus phage S-PM2", "from_the_text": "as §2"}, "[12]": {"substrate": "Nc1nc2c(ncn2[C@H]2C[C@H](O)[C@@H](COP(=O)(O)OP(=O)(O)OP(=O)(O)O)O2)c(=O)[nH]1", "format": "biochemical, Synechococcus phage S-PM2", "from_the_text": "as §2"}, "[13]": {"substrate": "Nc1ncnc2c1ncn2[C@@H]1O[C@H](COP(=O)(O)OP(=O)(O)OP(=O)(O)O)[C@@H](O)[C@H]1O", "format": "biochemical, Synechococcus phage S-PM2", "from_the_text": "as §2"}, "[14]": {"substrate": "Nc1ncnc2c1ncn2[C@H]1C[C@H](O)[C@@H](COP(=O)(O)OP(=O)(O)OP(=O)(O)O)O1", "format": "biochemical, Synechococcus phage S-PM2", "from_the_text": "as §2"}, "[15]": {"substrate": "O=c1ccn([C@@H]2O[C@H](COP(=O)(O)OP(=O)(O)OP(=O)(O)O)[C@@H](O)[C@H]2O)c(=O)[nH]1", "format": "biochemical, Synechococcus phage S-PM2", "from_the_text": "as §2"}, "[16]": {"substrate": "O=c1ccn([C@H]2C[C@H](O)[C@@H](COP(=O)(O)OP(=O)(O)OP(=O)(O)O)O2)c(=O)[nH]1", "format": "biochemical, Synechococcus phage S-PM2", "from_the_text": "as §2"}}}
{"protein": "B1", "values": [{"measurement": "Km", "setting": "[1]", "result": "1.2 (±0.21) mM"}, {"measurement": "Vmax", "setting": "[1]", "result": 1.96, "unit": "µmol/min/mg"}, {"measurement": "kcat", "setting": "[1]", "result": "2.3 ± 0.164", "unit": "s⁻¹"}, {"measurement": "Km", "setting": "[2]", "result": "0.14 (±0.03) mM"}, {"measurement": "Vmax", "setting": "[2]", "result": 3.81, "unit": "µmol/min/mg"}, {"measurement": "kcat", "setting": "[2]", "result": "4.46 ± 0.417", "unit": "s⁻¹"}, {"measurement": "Km", "setting": "[3]", "result": "0.26 (±0.02) mM"}, {"measurement": "Vmax", "setting": "[3]", "result": 0.7, "unit": "µmol/min/mg"}, {"measurement": "kcat", "setting": "[3]", "result": "0.824 ± 0.153", "unit": "s⁻¹"}, {"measurement": "Km", "setting": "[4]", "result": "0.85 (±0.07) mM"}, {"measurement": "Vmax", "setting": "[4]", "result": 0.64, "unit": "µmol/min/mg"}, {"measurement": "kcat", "setting": "[4]", "result": "0.753 ± 0.293", "unit": "s⁻¹"}, {"measurement": "Km", "setting": "[5]", "result": "0.63 (±0.23) mM"}, {"measurement": "Vmax", "setting": "[5]", "result": 2.55, "unit": "µmol/min/mg"}, {"measurement": "kcat", "setting": "[5]", "result": "2.99 ± 0.407", "unit": "s⁻¹"}, {"measurement": "Km", "setting": "[6]", "result": "0.3 (±0.09) mM"}, {"measurement": "Vmax", "setting": "[6]", "result": 1.8, "unit": "µmol/min/mg"}, {"measurement": "kcat", "setting": "[6]", "result": "2.1 ± 0.323", "unit": "s⁻¹"}, {"measurement": "Km", "setting": "[7]", "result": "1.33 (±0.3) mM"}, {"measurement": "Vmax", "setting": "[7]", "result": 3.02, "unit": "µmol/min/mg"}, {"measurement": "kcat", "setting": "[7]", "result": "3.68 ± 0.1", "unit": "s⁻¹"}]}
{"protein": "B2", "values": [{"measurement": "Km", "setting": "[8]", "result": "1.23 (±0.06) mM"}, {"measurement": "Vmax", "setting": "[8]", "result": 5.68, "unit": "µmol/min/mg"}, {"measurement": "kcat", "setting": "[8]", "result": "3.68 ± 0.13", "unit": "s⁻¹"}, {"measurement": "Km", "setting": "[9]", "result": "0.85 (±0.11) mM"}, {"measurement": "Vmax", "setting": "[9]", "result": 2.51, "unit": "µmol/min/mg"}, {"measurement": "kcat", "setting": "[9]", "result": "1.62 ± 0.111", "unit": "s⁻¹"}, {"measurement": "Km", "setting": "[10]", "result": "1.16 (±0.04) mM"}, {"measurement": "Vmax", "setting": "[10]", "result": 8.86, "unit": "µmol/min/mg"}, {"measurement": "kcat", "setting": "[10]", "result": "5.74 ± 0.129", "unit": "s⁻¹"}, {"measurement": "Km", "setting": "[11]", "result": "4.86 (±1.13) mM"}, {"measurement": "Vmax", "setting": "[11]", "result": 1.65, "unit": "µmol/min/mg"}, {"measurement": "kcat", "setting": "[11]", "result": "1.93 ± 0.0658", "unit": "s⁻¹"}, {"measurement": "Km", "setting": "[12]", "result": "0.14 (±0.01) mM"}, {"measurement": "Vmax", "setting": "[12]", "result": 10.3, "unit": "µmol/min/mg"}, {"measurement": "kcat", "setting": "[12]", "result": "6.67 ± 0.165", "unit": "s⁻¹"}, {"measurement": "Km", "setting": "[13]", "result": "1.43 (±0.36) mM"}, {"measurement": "Vmax", "setting": "[13]", "result": 2.28, "unit": "µmol/min/mg"}, {"measurement": "kcat", "setting": "[13]", "result": "1.48 ± 0.157", "unit": "s⁻¹"}, {"measurement": "Km", "setting": "[14]", "result": "1.2 (±0.21) mM"}, {"measurement": "Vmax", "setting": "[14]", "result": 1.62, "unit": "µmol/min/mg"}, {"measurement": "kcat", "setting": "[14]", "result": "1.05 ± 0.124", "unit": "s⁻¹"}, {"measurement": "Km", "setting": "[15]", "result": "0.6 (±0.37) mM"}, {"measurement": "Vmax", "setting": "[15]", "result": 3.31, "unit": "µmol/min/mg"}, {"measurement": "kcat", "setting": "[15]", "result": "2.15 ± 0.119", "unit": "s⁻¹"}, {"measurement": "Km", "setting": "[16]", "result": "3.24 (±1.55) mM"}, {"measurement": "Vmax", "setting": "[16]", "result": 4.22, "unit": "µmol/min/mg"}, {"measurement": "kcat", "setting": "[16]", "result": "4.94 ± 0.395", "unit": "s⁻¹"}]}
